B1: SRC kinase associated phosphoprotein 1 (SKAP1), wild type, N2-fused [human] / FRK, N1-fused [not stated] (parent)
chain 1: MQAAALPEEIRWLLEDAEEFLAEGLRNENLSAVARDHRDHILRGFQQIKARYYWDFQPQGGDIGQDSSDDNHSGTLGLSLTSDAPFLSDYQDEGMEDIVKGAQELDNVIKQGYLEKKSKDHSFFGSEWQKRWCVVSRGLFYYYANEKSKQPKGTFLIKGYGVRMAPHLRRDSKKESCFELTSQDRRSYEFTATSPAEARDWVDQISFLLKDLSSLTIPYEEDEEEEEKEETYDDIDGFDSPSCGSQCRPTILPGSVGIKEPTEEKEEEDIYEVLPDEEHDLEEDESGTRRKGVDYASYYQGLWDCHGDQPDELSFQRGDLIRILSKEYNMYGWWVGELNSLVGIVPKEYLTTAFEVEER
chain 2: MSNICQRLWEYLEPYLPCLSTEADKSTVIENPGALCSPQSQRHGHYFVALFDYQARTAEDLSFRAGDKLQVLDTLHEGWWFARHLEKRRDGSSQQLQGYIPSNYVAEDRSLQAEPWFFGAIGRSDAEKQLLYSENKTGSFLIRESESQKGEFSLSVLDGAVVKHYRIKRLDEGGFFLTRRRIFSTLNEFVSHYTKTSDGLCVKLGKPCLKIQVPAPFDLSYKTVDQWEIDRNSIQLLKRLGSGQFGEVWEGLWNNTTPVAVKTLKPGSMDPNDFLREAQIMKNLRHPKLIQLYAVCTLEDPIYIITELMRHGSLQEYLQNDTGSKIHLTQQVDMAAQVASGMAYLESRNYIHRDLAARNVLVGEHNIYKVADFGLARVFKVDNEDIYESRHEIKLPVKWTAPEAIRSNKFSIKSDVWSFGILLYEIITYGKMPYSGMTGAQVIQMLAQNYRLPQPSNCPQQFYNIMLECWNAEPKERPTFETLRWKLEDYFETDSSYSDANNFIR
B2: SRC kinase associated phosphoprotein 1 (SKAP1), wild type, N2-fused [human] / SRMS, N1-fused [not stated] (parent)
chain 1: B1 chain 1
chain 2: MEPFLRRRLAFLSFFWDKIWPAGGEPDHGTPGSLDPNTDPVPTLPAEPCSPFPQLFLALYDFTARCGGELSVRRGDRLCALEEGGGYIFARRLSGQPSAGLVPITHVAKASPETLSDQPWYFSGVSRTQAQQLLLSPPNEPGAFLIRPSESSLGGYSLSVRAQAKVCHYRVSMAADGSLYLQKGRLFPGLEELLTYYKANWKLIQNPLLQPCMPQKAPRQDVWERPHSEFALGRKLGEGYFGEVWEGLWLGSLPVAIKVIKSANMKLTDLAKEIQTLKGLRHERLIRLHAVCSGGEPVYIVTELMRKGNLQAFLGTPEGRALRLPPLLGFACQVAEGMSYLEEQRVVHRDLAARNVLVDDGLACKVADFGLARLLKDDIYSPSSSSKIPVKWTAPEAANYRVFSQKSDVWSFGVLLHEVFTYGQCPYEGMTNHETLQQIMRGYRLPRPAACPAEVYVLMLECWRSSPEERPSFATLREKLHAIHRCHP
B3: SRC kinase associated phosphoprotein 1 (SKAP1), wild type, N2-fused [human] / LYN, N1-fused [not stated] (parent)
chain 1: B1 chain 1
chain 2: MGCIKSKGKDSLSDDGVDLKTQPVRNTERTIYVRDPTSNKQQRPVPESQLLPGQRFQTKDPEEQGDIVVALYPYDGIHPDDLSFKKGEKMKVLEEHGEWWKAKSLLTKKEGFIPSNYVAKLNTLETEEWFFKDITRKDAERQLLAPGNSAGAFLIRESETLKGSFSLSVRDFDPVHGDVIKHYKIRSLDNGGYYISPRITFPCISDMIKHYQKQADGLCRRLEKACISPKPQKPWDKDAWEIPRESIKLVKRLGAGQFGEVWMGYYNNSTKVAVKTLKPGTMSVQAFLEEANLMKTLQHDKLVRLYAVVTREEPIYIITEYMAKGSLLDFLKSDEGGKVLLPKLIDFSAQIAEGMAYIERKNYIHRDLRAANVLVSESLMCKIADFGLARVIEDNEYTAREGAKFPIKWTAPEAINFGCFTIKSDVWSFGILLYEIVTYGKIPYPGRTNADVMTALSQGYRMPRVENCPDELYDIMKMCWKEKAEERPTFDYLQSVLDDFYTATEGQYQQQP

The variants in the first assay derive from B1. Kind of assay: luciferase complementation assay (normalized luciferase ratio, NLR). Particulars: with FRK, HEK293T cells, one experiment, read off a plot.
With chain 1 MQAAALPEEIRWLLEDAEEFLAEGLRNENLSAVARDHRDHILRGFQQIKARYYWDFQPQGGDIGQDSSDDNHSGTLGLSLTSDAPFLSDYQDEGMEDIVKGAQELDNVIKQGYLEKKSKDHSFFGSEWQKRWCVVSRGLFYYYANEKSKQPKGTFLIKGYGVRMAPHLRRDSKKESCFELTSQDRRSYEFTATSPAEARDWVDQISFLLKDLSSLTIPYEEDEEEEEKEETYDDIDGFDSPSCGSQCRPTILPGSVGIKEPTEEKEEEDIYEVLPDEEHDLEEDESGTRRKGVDYASYYQGLWDCHGDQPDELSFQRGDLIRILSKEYNMYGKWVGELNSLVGIVPKEYLTTAFEVEER [chain 1 W333K], the ratio to parent was determined as 0.84.

chain 1 MQAAALPEEIRWLLEDAEEFLAEGLRNENLSAVARDHRDHILRGFQQIKARYYWDFQPQGGDIGQDSSDDNHSGTLGLSLTSDAPFLSDYQDEGMEDIVKGAQELDNVIKQGYLEKKSKKHSFFGSEWQKRWCVVSRGLFYYYANEKSKQPKGTFLIKGYGVRMAPHLRRDSKKESCFELTSQDRRSYEFTATSPAEARDWVDQISFLLKDLSSLTIPYEEDEEEEEKEETYDDIDGFDSPSCGSQCRPTILPGSVGIKEPTEEKEEEDIYEVLPDEEHDLEEDESGTRRKGVDYASYYQGLWDCHGDQPDELSFQRGDLIRILSKEYNMYGWWVGELNSLVGIVPKEYLTTAFEVEER [chain 1 D120K]: the ratio to parent was 1.

Variants of B2 are the subject of another assay. The assay is described as above. Particulars: with SRMS, HEK293T cells, one experiment, read off a plot.
Take chain 1 MQAAALPEEIRWLLEDAEEFLAEGLRNENLSAVARDHRDHILRGFQQIKARYYWDFQPQGGDIGQDSSDDNHSGTLGLSLTSDAPFLSDYQDEGMEDIVKGAQELDNVIKQGYLEKKSKDHSFFGSEWQKRWCVVSRGLFYYYANEKSKQPKGTFLIKGYGVRMAPHLRRDSKKESCFELTSQDRRSYEFTATSPAEARDWVDQISFLLKDLSSLTIPYEEDEEEEEKEETYDDIDGFDSPSCGSQCRPTILPGSVGIKEPTEEKEEEDIYEVLPDEEHDLEEDESGTRRKGVDYASYYQGLWDCHGDQPDELSFQRGDLIRILSKEYNMYGKWVGELNSLVGIVPKEYLTTAFEVEER [chain 1 W333K]: the ratio to parent was 1.2.

Variants of B3 are the subject of the next assay. Described as above. The settings on record: with LYN, HEK293T cells, one experiment, read off a plot.
Take chain 1 D120K: the ratio to parent is 1.4.

For the variant chain 1 W333K, the ratio to parent was determined as 1.8.

The record behind these values is publication PMC10939263.
